This note sets out measurements from patent US20210138031A1 (TRUSTEES OF TUFTS COLLEGE, published 2021).

Experiment [1] has as its target C9 (UniProt P02748 22-559). As to the kind of experiment: cell-based or functional assay.
Experiment [2] addresses C3b (human, UniProt P01024 749-1663; P01024 23-667). The experiment in a line: cell-based or functional assay.

Chain of C9 (P02748 22-559 limits assumed): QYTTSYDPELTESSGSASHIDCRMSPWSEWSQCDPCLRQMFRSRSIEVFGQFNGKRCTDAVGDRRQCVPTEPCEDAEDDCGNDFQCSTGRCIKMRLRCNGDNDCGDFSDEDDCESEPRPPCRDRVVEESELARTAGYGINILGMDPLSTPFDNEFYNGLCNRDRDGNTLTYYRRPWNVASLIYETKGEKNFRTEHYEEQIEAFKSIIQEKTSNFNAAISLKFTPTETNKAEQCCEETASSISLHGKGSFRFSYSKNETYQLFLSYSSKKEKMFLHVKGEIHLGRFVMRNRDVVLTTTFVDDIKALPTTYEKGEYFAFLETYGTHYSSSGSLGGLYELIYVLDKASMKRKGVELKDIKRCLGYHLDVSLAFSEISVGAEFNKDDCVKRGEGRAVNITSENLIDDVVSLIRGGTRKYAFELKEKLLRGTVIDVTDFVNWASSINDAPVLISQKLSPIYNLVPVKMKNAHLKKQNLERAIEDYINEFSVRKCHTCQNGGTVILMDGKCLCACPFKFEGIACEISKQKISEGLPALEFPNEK
Chain of C3b (P01024 749-1663 limits assumed, chain 1 of 2): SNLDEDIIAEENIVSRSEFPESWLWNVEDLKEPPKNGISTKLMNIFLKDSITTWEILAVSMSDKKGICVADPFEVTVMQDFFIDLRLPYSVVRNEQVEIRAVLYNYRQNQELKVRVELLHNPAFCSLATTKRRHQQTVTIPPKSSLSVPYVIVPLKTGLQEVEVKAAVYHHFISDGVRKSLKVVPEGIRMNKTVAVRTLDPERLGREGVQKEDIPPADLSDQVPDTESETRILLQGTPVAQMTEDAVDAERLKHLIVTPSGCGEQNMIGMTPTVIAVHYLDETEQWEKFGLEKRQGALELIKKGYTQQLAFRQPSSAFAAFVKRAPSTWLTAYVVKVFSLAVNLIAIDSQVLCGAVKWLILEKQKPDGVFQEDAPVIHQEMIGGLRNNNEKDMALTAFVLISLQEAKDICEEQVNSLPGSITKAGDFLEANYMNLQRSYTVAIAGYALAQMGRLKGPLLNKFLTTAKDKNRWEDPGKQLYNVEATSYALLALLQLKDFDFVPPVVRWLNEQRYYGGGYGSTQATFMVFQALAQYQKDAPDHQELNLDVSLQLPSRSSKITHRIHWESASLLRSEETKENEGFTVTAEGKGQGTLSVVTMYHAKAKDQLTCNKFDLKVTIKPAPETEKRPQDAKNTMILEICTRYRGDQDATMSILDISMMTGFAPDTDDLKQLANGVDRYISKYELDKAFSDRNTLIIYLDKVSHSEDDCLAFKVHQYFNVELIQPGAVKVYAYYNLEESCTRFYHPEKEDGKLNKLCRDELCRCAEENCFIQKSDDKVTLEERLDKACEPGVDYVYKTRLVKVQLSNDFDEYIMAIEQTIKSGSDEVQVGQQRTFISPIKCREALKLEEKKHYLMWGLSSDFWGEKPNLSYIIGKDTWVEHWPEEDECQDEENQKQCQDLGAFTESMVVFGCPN
Chain of C3b (P01024 23-667 limits assumed, chain 2 of 2): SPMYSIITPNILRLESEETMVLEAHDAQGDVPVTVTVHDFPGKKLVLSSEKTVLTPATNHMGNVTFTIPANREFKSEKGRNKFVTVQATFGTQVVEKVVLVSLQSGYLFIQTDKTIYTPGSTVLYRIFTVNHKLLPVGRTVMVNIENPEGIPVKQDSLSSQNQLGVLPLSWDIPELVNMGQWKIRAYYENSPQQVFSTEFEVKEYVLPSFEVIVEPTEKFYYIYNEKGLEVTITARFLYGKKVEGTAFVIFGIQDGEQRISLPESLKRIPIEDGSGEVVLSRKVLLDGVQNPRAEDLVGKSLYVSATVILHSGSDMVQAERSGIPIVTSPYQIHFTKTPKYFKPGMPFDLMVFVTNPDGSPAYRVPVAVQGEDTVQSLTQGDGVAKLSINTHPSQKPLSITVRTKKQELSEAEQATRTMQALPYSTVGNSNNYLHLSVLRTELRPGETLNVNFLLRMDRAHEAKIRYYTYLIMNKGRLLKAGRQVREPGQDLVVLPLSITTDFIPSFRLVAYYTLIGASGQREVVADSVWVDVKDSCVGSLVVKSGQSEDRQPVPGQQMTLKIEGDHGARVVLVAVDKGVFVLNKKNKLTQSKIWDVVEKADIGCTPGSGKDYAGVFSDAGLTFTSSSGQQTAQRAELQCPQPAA

On to “sCD59 (soluble CD59, positive control) (from UniProt P13987 26-102)”, for which the reduction in lysis of sheep erythrocytes carrying C5b-8 after addition of C9, compared to GFP media containing C9 in experiment [1] turned out to be 21%.

B1: Dual Terminator of Active Complement (DTAC) (other)
chain: GGDCGLPPDVPNAQPALEGRTSFPEDTVITYKCEESFVKIPGEKDSVICLKGSQWSDIEEFCNRSCEVPTRLNSASLKQPYITQNYFPVGTVVEYECRPGYRREPSLSPKLTCLQNLKWSTAVEFCKKKSCPNPGEIRNGQIDVPGGILFGATISFSCNTGYKLFGSTSSFCLISGSSVQWSDPLPECREIYCPAPPQIDNGIIQGERDHYGYRQSVTYACNKGFTMIGEHSIYCTVNNDEGEWSGPPPECRGKSLTSKVPPTVQKPTTVNVPTTEVSPTSQKTTTKTTTPNAQATRSTPVSRTTKHFHETTPNKGSGTTSGTTGGGGGLQCYNCPNPTADCKTAVNCSSDFDACLITKAGLQVYNKCWKFEHCNFNDVTTRLRENELTYYCCKKDLCNFNEQLE
modifications: glycosylated (about 76 kDa band observed)
Take B1: the “reduction of release of hemoglobin from sheep erythrocytes carrying C5b-8 after addition of C9, relative to media from pGFP-transfected cells” value in experiment [1] worked out at 34.8%.

B2: Soluble Active Complement Terminator (SACT) (other)
chain: GCEEPPTFEAMELIGKPKPYYEIGERVDYKCKKGYFYIPPLATHTICDRNHTWLPVSDDACYRETCPYIRDPLNGQAVPANGTYEFGYQMHFICNEGYYLIGEEILYCELKGSVAIWSGKPPICEKVLCTPPPKIKNGKHTFSEVEVFEYLDAVTYSCDPAPGPDPFSLIGESTIYCGDNSVWSRAAPECKVVKCRFPVVENGKQISGFGKKFYYKATVMFECDKGFYLDGSDTIVCDSNSTWDPPVPKCLKVGGGGGGDCGLPPDVPNAQPALEGRTSFPEDTVITYKCEESFVKIPGEKDSVICLKGSQWSDIEEFCNRSCEVPTRLNSASLKQPYITQNYFPVGTVVEYECRPGYRREPSLSPKLTCLQNLKWSTAVEFCKKKSCPNPGEIRNGQIDVPGGILFGATISFSCNTGYKLFGSTSSFCLISGSSVQWSDPLPECREIYCPAPPQIDNGIIQGERDHYGYRQSVTYACNKGFTMIGEHSIYCTVNNDEGEWSGPPPECRGKSLTSKVPPTVQKPTTVNVPTTEVSPTSQKTTTKTTTPNAQATRSTPVSRTTKHFHETTPNKGSGTTSGTTGGGGGLQCYNCPNPTADCKTAVNCSSDFDACLITKAGLQVYNKCWKFEHCNFNDVTTRLRENELTYYCCKKDLCNFNEQLE
modifications: N- and O-linked glycosylation (about 110 kDa band observed)
For B2, in experiment [1], the “reduction of release of hemoglobin from sheep erythrocytes carrying C5b-8 after addition of C9, relative to media from pGFP-transfected cells” value worked out at 29.9%.

B3: soluble terminator of activated complement (STAC) (other)
chain: LQCYNCPNPTADCKTAVNCSSDFDACLITKAGLQVYNKCWKFEHCNFNDVTTRLRENELTYYCCKKDLCNFNEQLEGGGGGCEEPPTFEAMELIGKPKPYYEIGERVDYKCKKGYFYIPPLATHTICDRNHTWLPVSDDACYRETCPYIRDPLNGQAVPANGTYEFGYQMHFICNEGYYLIGEEILYCELKGSVAIWSGKPPICEKVLCTPPPKIKNGKHTFSEVEVFEYLDAVTYSCDPAPGPDPFSLIGESTIYCGDNSVWSRAAPECKVVKCRFPVVENGKQISGFGKKFYYKATVMFECDKGFYLDGSDTIVCDSNSTWDPPVPKCLKVGGGGGGDCGLPPDVPNAQPALEGRTSFPEDTVITYKCEESFVKIPGEKDSVICLKGSQWSDIEEFCNRSCEVPTRLNSASLKQPYITQNYFPVGTVVEYECRPGYRREPSLSPKLTCLQNLKWSTAVEFCKKKSCPNPGEIRNGQIDVPGGILFGATISFSCNTGYKLFGSTSSFCLISGSSVQWSDPLPECREIYCPAPPQIDNGIIQGERDHYGYRQSVTYACNKGFTMIGEHSIYCTVNNDEGEWSGPPPECRGKSLTSKVPPTVQKPTTVNVPTTEVSPTSQKTTTKTTTPNAQATRSTPVSRTTKHFHETTPNKGSGTTSGTT
For B3, the “reduction in C3b α′ chain signal intensity in the presence of Factor I, relative to media from pGFP transfected cells (quantitative western blot)” value in experiment [2] was 34.3%.
